For one data set, the target named is T1, TkAcnX (Thermococcus kodakarensis, UniProt Q5JGJ6+Q5JGJ7).
T1 construct: gene TK1249; both subunits co-expressed in E. coli (pETDuet-1); His6 tag on small subunit cut off with 3C protease; heterodimer ~24 + ~42 kDa
Briefly: X-ray co-crystal structure, […] Å. The class given is binding. The conditions noted are these: 40 mM MVA5P in co-crystallization; inactive form with [3Fe-4S] cluster; active site between subunits.

Substrate in data set [1]: O=C(O)[C@H]1NCC[C@H]1O
Briefly: coupled spectrophotometric assay with NADH-dependent Pyr2C reductase. The format is biochemical, Agrobacterium fabrum. The conditions noted are these: free enzyme; coupling with NADH.

T1 sequence (Q5JGJ7 whole entry): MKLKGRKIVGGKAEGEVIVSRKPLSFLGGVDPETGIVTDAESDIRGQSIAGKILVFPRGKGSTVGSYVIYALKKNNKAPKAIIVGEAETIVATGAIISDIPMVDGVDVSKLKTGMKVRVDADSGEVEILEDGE
T1 sequence (Q5JGJ6 whole entry): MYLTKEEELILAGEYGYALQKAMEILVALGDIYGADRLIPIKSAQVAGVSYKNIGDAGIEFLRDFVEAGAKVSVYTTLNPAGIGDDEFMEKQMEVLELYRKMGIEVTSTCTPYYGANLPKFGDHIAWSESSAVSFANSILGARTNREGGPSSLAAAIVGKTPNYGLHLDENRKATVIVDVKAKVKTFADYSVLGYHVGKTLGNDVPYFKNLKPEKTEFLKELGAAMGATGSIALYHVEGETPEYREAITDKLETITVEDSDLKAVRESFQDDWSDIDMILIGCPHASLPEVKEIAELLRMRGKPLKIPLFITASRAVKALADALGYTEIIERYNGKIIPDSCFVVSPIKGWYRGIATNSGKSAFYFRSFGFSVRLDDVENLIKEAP

Turning to `C[C@@](O)(CCOP(=O)(O)O)CC(=O)O` [MVA5P], on TkAcnX, the “X-ray co-crystal structure, 1.9 Å” value was “co-crystallized the wild-type enzyme of TkAcnX (inactive form) with MVA5P”.

B1: AtAcnX (Agrobacterium fabrum str. C58) (protein)
chain: MSSAVSTTAAPEARSILAGAAEGKVIATTEALSFWGGVDPATGKVIDVHHPLHGICLTGGVLFMPTSRGSCTGSGVLLDLILTGRAPSALVFCEAEDVLTLGALVAAEMFDKALPVIRLDAETFSRFSRAAHVSIDQNTIKADGVSLAIAPPATAHLDLNDDDRAMLVGRDGIAVRQAMRIIVAMAAQQGASALVDVTQGHIDGCIYASPANLTFAEKMADMGGKVRAPSTMNAISVDKANWRAQGVPEDFGDPAARLADAYVRMGCKPTFTCSPYLLDSAPSAGESIAWAESNAVIFANTVLGARTAKHPDFLDLCIAMTGRAPLSGVYIEENRRPQRIVDVALPAGIDDAFWPLVGYLAGKAAPDCIPLLRGLGAAKPSRDDLKALCAAFGTTSASPMLHIEGATPEAGLAPLETAETVTISLQDMAAAWSLLNDGPEEVQLVAIGSPHASLEECRALAAVFAGRKRRADVAVIVTAGQQVIDAAGKDGTLQSLKDSGVQVLPDLCWCSISEPVFPTKTRALMTNSGKYAHYGPGLSGRAVRFGSLADCVESALTGRAVSRLPVWLS
notes: E. coli BL21(DE3); monomer, ~59 kDa; [2Fe-2S] cluster
Usually Km stands for the concentration of substrate that gives half-maximal velocity. As usually defined, the kcat is the maximal rate divided by the concentration of active sites. For the molecule B1, in data set [1], the Km came to 1160 ± 110 µM and the kcat turned out to be 33.33 ± 2.77 s⁻¹.

These data come from article PMC8184944, “Crystal structures of aconitase X enzymes from bacteria and archaea provide insights into the molecular evolution of the aconitase superfamily” (Communications Biology, 2021).
